Measurements from publication PMC9166766 (2022).
No end group written: not given here. *: point of attachment. Biotin = O=C1N[C@H]2[C@H](CS[C@H]2CCCCC(=O)*)N1

Target: His6-tagged CNA (isoform not told) (UniProt P16298 1-524)
Experiment: SPR

Work on Biotin-AAAMAGFPPEITVTPPTP [biotin-labeled CABIN1-L-1 peptide] yielded a Kd of 512 nM.
